Assay results published in article doi:10.1101/228536 (bioRxiv, 2017).

T1: Med15 ABD3 (Med15 484-651) (yeast, UniProt P19659 484-651)
T1 sequence (looked up): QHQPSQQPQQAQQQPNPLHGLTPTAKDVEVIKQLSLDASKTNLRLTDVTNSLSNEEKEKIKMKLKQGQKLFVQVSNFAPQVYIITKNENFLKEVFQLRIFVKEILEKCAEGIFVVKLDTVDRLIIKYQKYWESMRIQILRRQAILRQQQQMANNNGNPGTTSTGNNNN

T2: Med15 ABD1,2,3 (Med15 158-651 Δ239-272, Δ373-483) (yeast, UniProt P19659 158-651, Δ239-272 | Δ373-483)
T2 sequence (looked up): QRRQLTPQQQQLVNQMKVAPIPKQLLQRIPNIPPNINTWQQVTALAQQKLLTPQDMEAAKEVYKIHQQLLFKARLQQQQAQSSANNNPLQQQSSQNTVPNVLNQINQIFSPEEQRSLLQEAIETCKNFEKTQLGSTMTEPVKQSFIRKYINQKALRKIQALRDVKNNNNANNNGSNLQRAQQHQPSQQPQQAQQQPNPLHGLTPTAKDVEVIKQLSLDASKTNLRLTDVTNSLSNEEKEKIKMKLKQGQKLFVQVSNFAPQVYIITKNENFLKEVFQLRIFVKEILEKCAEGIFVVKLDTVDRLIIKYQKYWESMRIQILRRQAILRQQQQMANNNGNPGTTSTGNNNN

T3: Med15 KIX+ABD1,2,3 (Med15 1-651 Δ239-272, Δ373-483) (yeast, UniProt P19659 1-651, Δ239-272 | Δ373-483)
T3 sequence (looked up): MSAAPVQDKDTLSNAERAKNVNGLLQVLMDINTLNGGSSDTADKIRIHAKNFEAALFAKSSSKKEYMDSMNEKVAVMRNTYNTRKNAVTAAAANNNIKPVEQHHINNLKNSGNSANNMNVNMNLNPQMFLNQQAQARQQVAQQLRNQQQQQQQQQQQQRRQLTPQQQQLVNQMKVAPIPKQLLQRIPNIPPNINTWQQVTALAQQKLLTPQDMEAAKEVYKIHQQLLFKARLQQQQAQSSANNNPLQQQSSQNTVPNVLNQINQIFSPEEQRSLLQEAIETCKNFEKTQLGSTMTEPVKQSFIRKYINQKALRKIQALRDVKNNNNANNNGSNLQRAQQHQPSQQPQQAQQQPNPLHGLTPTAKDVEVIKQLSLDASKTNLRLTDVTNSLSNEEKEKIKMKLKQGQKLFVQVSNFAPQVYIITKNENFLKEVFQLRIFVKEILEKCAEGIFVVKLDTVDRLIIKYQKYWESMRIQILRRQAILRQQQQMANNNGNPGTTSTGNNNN

T4: Med15 ABD2 (Med15 277-368) (yeast, UniProt P19659 277-368)
T4 sequence (looked up): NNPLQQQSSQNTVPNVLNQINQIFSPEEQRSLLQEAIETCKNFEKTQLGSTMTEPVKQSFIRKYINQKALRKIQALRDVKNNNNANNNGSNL

B1: Oregon Green-labeled Ino2 1-41-(GS)3-96-160 (domain or fragment, yeast)
chain: MQQATGNELLGILDLDNDIDFETAYQMLSSNFDDQMSAHIHGSGSGSPHQPSMGFDQALGLKLSPSSSGLLSTNESNAIEQFLDNLISQDMMSSNASMNSESHLHIRSPKKQ
modifications: Oregon Green 488 dye, N-terminal fluorescent label
B2: Ino2 1-41-(GS)3-96-160 (domain or fragment, yeast)
chain: B1 chain
B3: Met4 72-160 (domain or fragment, yeast, UniProt P32389 72-160, looked up)
chain: VTNRGNTNLYDHAVTPEILLEQLAYVDNFIPSLDNEFSNVDWNVNTTHNNANNNGADTFSSINANPFDLDEQLAIELSAFADDSFIFPD
B4: Oregon Green-labeled Met4 72-160 (domain or fragment, yeast, UniProt P32389 72-160, looked up)
chain: B3 chain
modifications: Oregon Green 488 dye, N-terminal fluorescent label
B5: Med15 ABD1 (Med15 158-238) (domain or fragment, yeast, UniProt P19659 158-238, looked up)
chain: QRRQLTPQQQQLVNQMKVAPIPKQLLQRIPNIPPNINTWQQVTALAQQKLLTPQDMEAAKEVYKIHQQLLFKARLQQQQAQ

Columns and labels:
[1] = biological target: T1, Med15 ABD3 (Med15 484-651); assay: fluorescence polarisation
[2] = biological target: T2, Med15 ABD1,2,3 (Med15 158-651 Δ239-272, …); assay: fluorescence polarisation
[3] = biological target: T3, Med15 KIX+ABD1,2,3 (Med15 1-651 …); assay: fluorescence polarisation
[4] = biological target: T4, Med15 ABD2 (Med15 277-368); assay: ITC
[5] = biological target: T1, Med15 ABD3 (Med15 484-651); assay: ITC
[6] = biological target: T3, Med15 KIX+ABD1,2,3 (Med15 1-651 …); assay: cross-linking
Met4 72-160 = biological target: B3; assay: ITC

| Binder | binding result [1] | Kd [2] [nM] | Kd [3] [nM] | Kd [4] [µM] | Kd [5] [µM] | other results |
| --- | --- | --- | --- | --- | --- | --- |
| B1 | binds | ~300 | 210 |  |  |  |
| B2 |  |  |  | 34 | 7.8 |  |
| B3 |  |  |  | 20 | 1.36 | binding result [6]: binds |
| B4 | binds | ~300 | 196 |  |  |  |
| B5 |  |  |  |  |  | binding result (Met4 72-160): binds |
